Test system: MS2 coat protein
Test: apparent KD of MS2 coat protein; designed switch direction (-1 OFF switch, 1 ON switch): 1; higher = weaker reporter binding
How it was run: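 Apparent KD, taken as the median over clusters for each design, was obtained by curve-fitting normalised cluster fluorescence. Designed RNA switches had been transcribed on Illumina chips by stalled E. coli RNA polymerase and titrated with SNAP-549-labelled MS2 coat protein, doubling from 0.7 or 1.5 nM to 3 µM.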

[1] = Eterna round: R95, input ligand: FMN 200 uM
[2] = Eterna round: R95, input ligand: microRNA oligo, concentration not stated
[3] = Eterna round: R95, input ligand: none
[4] = input ligand: microRNA oligo, concentration not stated

Row | Sequence | apparent KD of MS2 coat protein [1] | apparent KD of MS2 coat protein [2] | apparent KD of MS2 coat protein [3] | apparent KD of MS2 coat protein (input ligand: FMN 200 uM) | apparent KD of MS2 coat protein [4] | apparent KD of MS2 coat protein (input ligand: none)
1 | UACAAUCUAUCUGAGGAUAUCAUGAAUAUAACAUGAGGAUCACCCAUGUGCAGGAAAACUGCAUAUGAGAAGGCAGAUAGAUUGU [salish99_ss2_r3_068] (puzzle: Same State 2) | 61.3 nM | 49.2 nM | 109 nM | – | – | –
2 | UACAUGAGGAUCACCCAUGUAGUCCAUGCACCGGACCGAAGCGAGGAUAUGGUCUGCAUCGGUGGCCAGAAGGCGCUUCCAGAA [Eternabot solution 26] (Eterna round: R96, puzzle: Same State NG 3) | – | – | – | 24.7 nM | 21.3 nM | 46.7 nM
3 | UUAAUGAUGUUAGGAUAUACAUGAGGAAUCCUCGUAGAAGGAACAUGACAUGAGGAUCACCCAUGUAACGCUCCGUAGAGCGUA [JL SSNG1 1.17] (Eterna round: R96, puzzle: Same State NG 1) | – | – | – | – | 44.7 nM | –
4 | UUGAAGACGGACAAGGAUAUGUCAAAGGAAACAUGAGGAUCACCCAUGUGGAGAUUGGAGAAGAAACAGAAGGUGUACGGAGAGA [JR_SS2_Sub008] (puzzle: Same State 2) | 27.5 nM | 13.6 nM | 21.4 nM | – | – | –
5 | GUUACAUGAGGAUCACCCAUGUAUGUGUGGGAGUAAGUGUCUUAGGAUAUCUAGUAUUCAAUUUAAGAGAAGGAAGAUUGUUGU [JMF's solution 58] (Eterna round: R96, puzzle: Same State NG 3) | – | – | – | 109 nM | 64.2 nM | 93.9 nM
6 | GUUACAUGAGGAUCACCCAUGUAUGUGUGGGAGUAAGUGUCUUAGGAUAUCUAUUGUUUAAAUUAAGAGAAGGAAGAUUGUUGU [JMF's solution 13] (Eterna round: R96, puzzle: Same State NG 3) | – | – | – | 102 nM | 84.3 nM | 117 nM
7 | UAUGAAUUGCAAGGAUAUUGAUAACAUGAGGAUCACCCAUGUAAUUGAUCGAGUUAGAUCAGUUACAAGAAGGUGCUAUUGAUU [JR_SSNG2_Sub036] (Eterna round: R96, puzzle: Same State NG 2) | – | – | – | 534 nM | 24.5 nM | 90.7 nM
8 | AUUAUUAAUGCAGGAUAUGAUUAACAUGAGGAUCACCCAUGUGGUGUUGUGAGUAAGGAGAGUGAUCAGAAGGGCAUUUUUUUA [JMF's solution 18] (Eterna round: R96, puzzle: Same State NG 2) | – | – | – | 653 nM | 440 nM | 479 nM
9 | UUUAGUUGCGGGCAGGAUAUGUAUUAAAAUACAUGAGGAUCACCCAUGUGCGGGUAUAACACCCGACAGAAGGGCCAAUCGCGAC [Laonerce] (Eterna round: R96, puzzle: Same State 2) | – | – | – | 24.5 nM | 256 nM | 278 nM
10 | GGAGCCGGCCUAGGAUAUUUCAUGAAAAAACAUGAGGAUCACCCAUGUAGGCCAGAAGGCCUUGGGAAGAAGGAGGUCGGCUCC [Loop Effect - G24] (Eterna round: R96, puzzle: Same State NG 2) | – | – | – | 32.1 nM | 151 nM | 472 nM
11 | UUGCUCGUGUGAGGAUAUGCCGCCGUUUCGGCUGCAGAAGGUACUGUAAUACAUGAGGAUCACCCAUGUCUCUGUUGUUUCGUG [salish99_SSNG1_r04_934] (Eterna round: R96, puzzle: Same State NG 1) | – | – | – | 17.1 nM | 16.4 nM | 19.3 nM
12 | AGCGUCCACACAGGAUAUCACCUGCACUACAGGUGAGAAGGGUGACCGGUGCGCAAUAACGACAUGAGGAUCACCCAUGUAAAA [Enraquleer] (Eterna round: R96, puzzle: Same State NG 1) | – | – | – | 334 nM | 93.2 nM | 384 nM
13 | UUAGGAUGUGAAGGAUAUGCCGAGUUAAGCCCAGCAGAAGGUUACAUACCUUUUGAUACAUGAGGAUCACCCAUGUUCUAAGAU [Eternabot solution 45] (Eterna round: R96, puzzle: Same State NG 1) | – | – | – | – | 33.8 nM | –
14 | UUAAUGAAGUAAGGAUAUACAUGAGGAUCUCUCGUAGAAGGUACUAUACAUGAGGAUCACCCAUGUGCCGGUCCGUAGACUGGA [JL SSNG1 1.04] (Eterna round: R96, puzzle: Same State NG 1) | – | – | – | 708 nM | 180 nM | 1280 nM
15 | GGAGCCAAGGCAGGAUAUUCAUAUUAAAUACAUGAGGAUCACCCAUGUUAGGCCAGAAGGCCUUGGGAGAAGGGCCAUGGCUCG [Xeonanis - 13 mod20] (Eterna round: R96, puzzle: Same State NG 2) | – | – | – | 17 nM | 34.1 nM | 52.5 nM
16 | GAAAGAGGAAGCGAGGAUAUCGUGAAGAGUACAUGAGGAUCACCCAUGUUGUAGGUAAAGGUAGGCGAGAAGGCGCAGGAGAAGA [JR_SS2_Sub0102] (puzzle: Same State 2) | 23.9 nM | 23.7 nM | 33.2 nM | – | – | –
